Source: PMC3253924 (DNA Repair, 2011)
Residue numbers refer to the chain shown, from its start. Names may count otherwise. Like-named read-outs stand apart in the source and are kept apart here.

B1: mouse TREX1 catalytic core (residues 1-242), wild type (enzyme, UniProt Q91XB0 1-242, looked up)
chain: MGSQTLPHGHMQTLIFLDLEATGLPSSRPEVTELCLLAVHRRALENTSISQGHPPPVPRPPRVVDKLSLCIAPGKACSPGASEITGLSKAELEVQGRQRFDDNLAILLRAFLQRQPQPCCLVAHNGDRYDFPLLQTELARLSTPSPLDGTFCVDSIAALKALEQASSPSGNGSRKSYSLGSIYTRLYWQAPTDSHTAEGDVLTLLSICQWKPQALLQWVDEHARPFSTVKPMYGTPATTGTT
B2: mouse TREX1 catalytic core (residues 1-242), D200N mutant (enzyme, UniProt Q91XB0 1-242, looked up)
chain: B1 chain with D200N
B3: mouse TREX1 catalytic core (residues 1-242), D18N mutant (enzyme, UniProt Q91XB0 1-242, looked up)
chain: B1 chain with D18N
B4: mouse TREX1 catalytic core (residues 1-242), V201D mutant (enzyme, UniProt Q91XB0 1-242, looked up)
chain: B1 chain with V201D
B5: mouse TREX1 catalytic core (residues 1-242), D200H mutant (enzyme, UniProt Q91XB0 1-242, looked up)
chain: B1 chain with D200H

Legend:
[1] = molecular target: the molecule itself; assay: crystal structure
[2] = molecular target: the molecule itself; assay: crystal structure; remark: listed apart in the source

Protein	binding result [1]	binding result [2]
B1	binds	
B2		binds
B3		binds
B4		binds
B5		binds
